Measured values taken from PMC10716581, “Fanconi anemia-associated mutation in RAD51 compromises the coordinated action of DNA-binding and ATPase activities”.

Target: RAD51 WT (human, UniProt Q06609 1-339)
Test: EMSA; 2 mM ATP, 10 mM Mg2+; 20 mM Hepes-NaOH pH 7.5, 0.1 mg/ml BSA, 1 mM DTT, 10 mM MgCl2, 150 mM KCl, 2 mM ATP or AMP-PNP or no nucleotide, 2.7 uM (nt) DNA, 37 C 10 min; 8% native PAGE in 1x TBE
Settings: protein: recombinant; tags: N-terminal His-tag removed with thrombin; chain copies: 8; label: 5'-Cy5 on strand 1; blunt

RAD51 WT, sequence (Q06609 whole entry): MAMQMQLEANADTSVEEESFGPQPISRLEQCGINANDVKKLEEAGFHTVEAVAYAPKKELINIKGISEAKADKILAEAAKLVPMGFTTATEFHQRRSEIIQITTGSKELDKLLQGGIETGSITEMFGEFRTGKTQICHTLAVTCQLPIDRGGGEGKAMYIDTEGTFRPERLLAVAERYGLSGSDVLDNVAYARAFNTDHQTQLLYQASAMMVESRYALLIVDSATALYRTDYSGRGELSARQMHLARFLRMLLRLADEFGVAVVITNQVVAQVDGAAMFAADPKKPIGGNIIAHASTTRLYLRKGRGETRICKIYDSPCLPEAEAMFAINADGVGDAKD

B1: Cy5-OL4/OL5 40-mer (dsDNA)
DNA 1: TAATACAAAATAAGTAAATGAATAAACAGAGAAAATAAAG
DNA 2: CTTTATTTTCTCTGTTTATTCATTTACTTATTTTGTATTA
binding result: binds
